This series concerns the molecule itself. The experiment in a line: cryo-EM structure; intact AcMNPV budded virions purified from Sf9 culture, TE buffer (50 mM Tris, 0.5 mM EDTA, pH 8.7); helical reconstruction (C14, 4.2 Å) and localized reconstruction of four neighbouring VP39 dimers of the tube (3.1 Å).

B1: major capsid protein (MCP) (natural protein)
chain: MALVPVGMAPRQMRVNRCIFASIVSFDACITYKSPCSPDAYHDDGWFICNNHLIKRFKMSKMVLPIFDEDDNQFKMTIARHLVGNKERGIKRILIPSATNYQDVFNLNSMMQAEQLIFHLIYNNENAVNTICDNLKYTEGFTSNTQRVIHSVYATTKSILDTTNPNTFCSRVSRDELRFFDVTNARALRGGAGDQLFNNYSGFLQNLIRRAVAPEYLQIDTEELRFRNCATCIIDETGLVASVPDGPELYNPIRSSDIMRSQPNRLQIRNVLKFEGDTRELDRTLSGYEEYPTYVPLFLGYQIINSENNFLRNDFIPRANPNATLGGGAVAGPAPGVAGEAGGGIAV
notes: Major capsid protein VP39 (AC89) of Autographa californica multiple nucleopolyhedrovirus, as it stands in the budded virion; the model comprises Val15 to Asn320 (loop Asp27 to Ser34 built only in some subunits); the last 30 residues are not visible; Native protein in the nucleocapsid of intact budded virions; contains a CCCH zinc finger; also called VP39; AC89; source: AcMNPV budded virions …
Consider B1, for which the stoichiometry N (usually a count of units in the complex or per binding partner) came out at 2.

These data come from PMC11654684, “The nucleocapsid architecture and structural atlas of the prototype baculovirus define the hallmarks of a new viral realm” (Science Advances, 2024).
